In the supplement of paper PMC10266784:

B1: library; numbered along this chain (parent)
chain: MAAAAAAAAEQQSSNGPVKKSMREKAVERRSVNKEHNSNFKAGYIPIDEDRLHKTGLRGRKGNLAICVIILLFILAVINLIITLVIWAVIRIGPNGCDSMEFHESGLLRFKQVSDMGVIHPLYKSTVGGRRNENLVITGNNQPIVFQQGTTKLSVENNKTSITSDIGMQFFDPRTQNILFSTDYETHEFHLPSGVKSLNVQKASTERITSNATSDLNIKVDGRAIVRGNEGVFIMGKTIEFHMGGNMELKAENSIILNGSVMVSTTRLPSSSSGDQLGSGDWVRYKLCMCADGTLFKVQVTSQNMGCQISDNPCGNTH

Variants of: B1
Assay: SGCB cell-surface expression functional score (HA stain, bin4 vs bin1, normalised to synonymous) (log10 ratio); higher = more cell-surface SGCB (functional)
Method in brief: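 Human beta-sarcoglycan, tagged with HA and fused to YFP, was built into codon-saturation libraries and delivered by lentivirus at MOI <0.1 into HEK293 cells that stably express alpha-, gamma- and delta-sarcoglycan. After 72 hours, YFP-positive cells were sorted and grown for 5–7 days, then stained on ice with Alexa Fluor 647 anti-HA, fixed, sorted into four 5% intensity bins and amplicon-sequenced. Each variant's functional score is the log ratio of its frequency in the highest bin to that in the lowest bin, taken as the median across codons and transductions. Transductions were done in duplicate, and synonymous variants were scaled per section to mean 0, SD 0.5.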

SGCB cell-surface expression functional score (log10) of substitutions, site by site:
E104: P 0.47, D 0.17, I 0.01, F -0.24, W -0.09, Q 0.18, R 0.26, C 0.35, M 0.11, Y 0.03, G -0.1, S 0.39, K 0.13, T 0.51, V 0, H 0.28, N -0.11, L -0.18, A 0.22
H103: Y -0.3, L 0.33, M -0.23, C -0.1, T 0.65, E -0.33, Q 0.36, F -0.14, N 0.13, W 0.06, R 0.14, K -0.02, P -0.42, A 0.32, V 0.29, S 0.06, I -0.36, G 0.07, D 0
F110: Y -0.99, M -0.98, S -1.18, W -1.08, G -1.18, K -0.57, L -0.53, Q -1.06, N -0.99, E -1.42, P -1.35, I -0.31, H -0.19, C -1.22, A -1.33, R -1.05, V -0.47, D -1.65, T -1.1
M100: N -2.37, Q -1.26, E -1.92, K -2.02, Y -2.14, A -1.33, T -1.55, C -1.81, I -0.14, W -1.82, V -0.03, G -1.04, S -2.02, P -2.03, D -1.82, H -1.39, F -0.46, R -1.19
L107: Q 0, P -0.47, Y -0.27, D -0.74, K -0.53, E -1.14, I 0.27, S -0.46, N -0.13, C 0.24, R -0.36, A -0.67, G -0.26, F -0.29, M 0.24, H -0.67, W -0.39, T -0.34, V -0.21
Q112: E -0.38, D -0.16, F -0.97, C -0.81, A -0.21
P94: S -0.11, Y 0.29, W 0.26, Q 0.21, V -0.24, R -0.65, T -0.07
S99: A -0.01, I -0.54, K -1.57, V 0.15, E -1.96, P -0.38, H -0.65, G -0.07, N -0.77, M 0.21, T -0.4, D -1.16, Y 0.12, C -0.72, Q -2.34, W -0.35, L 0.18, R -1.61, F 0.86
K111: A -1.04, T -0.37, H -0.03, W 0.03, E -0.76, P -1.47, V -0.57, I -0.61, D -0.84, G -1.08, S -1.07, L -0.35, M -0.31, Q -1, Y -0.7, C 0.01, N -0.45, F -0.85, R -0.25
G106: R -0.35, W -0.87, F -1.86, T -0.86, C -1.9, L -1.62, Q -1.48, E -0.58, Y -1.15, A -0.24, S -0.78, K -0.63, N -0.38, V -1.47, P -1.85, I -1.82, D -0.65, M -0.94, H -0.43
C97: F -1.5, K -1.3, S -0.18, G -1.91, N -1.16, D -2.33, P -0.47, T -0.03, I 0.31, Q -1.14, R -1.75, V 0.16, E -1.87, W -1.46, Y -1.89, M -0.29, A -0.14, H -2.29, L 0.37
D98: F -0.64, N -0.3, V -0.14, Q -0.02, L 0.1, E -0.21, A 0.32, C -0.07, W -0.73, M 0.01, S 0.3, R -0.16, Y -0.66, I -1, H 0.4, T 0.06, P -0.12, K -0.4, G -0.2
R109: Y -0.17, C -0.5, S -0.09, D -0.93, L -0.1, F -0.2, A -0.33, M -0.41, I -0.04, N -1.22, Q -0.31, T 0.26, V 0.1, G -0.81, E -0.02, H -0.61, K -0.59, W 0.09, P -1.41
F102: K -1.02, N -1.53, P -1.4, I -1.26, S -1.18, G -0.51, R -1.14, M -0.45, W -0.12, Y -1.16, A -1.01, D -0.88, V -1.57, H 0.01, C -1.3, E -1.93, Q -1.39, T -1.16, L -0.5
G96: R -1.51, E -1.89, F -2.5, T -1.72, I -1.54, A -1.24, V -1.95, K -2.21, N -2.04, W -0.61, C -1.66, D -2.13, S -1.81, M -1.68, L -2.08, P -1.62, H -1.77, Y -2.29, Q -2.14
E101: M -0.63, P -1.78, D -0.49, F -0.8, H -1.14, Y -0.43, T -0.54, L -0.35, Q -0.15, S -0.39, N -1.22, K -0.77, V -0.43, G -0.26, R -0.59, I -0.3, C -1.14, A -0.15, W -1.04
N95: E 0.05, V -0.38, A 0.01, F 0.3, Q -0.12, G 0.21, L -0.06, K 0.16, D -0.24, Y 0.15, P -1.26, H -1.18, M 0.68, R -0.09, I -0.83, C -0.17, W 0.34, S 0.16, T -0.1
S105: V -0.62, N -0.63, P -1.03, E -0.29, D 0.04, C -0.21, G -0.15, T -0.09, M -0.33, Q -0.11, I -0.75, W 0.26, R -0.4, L -0.66, A -0.09, K -0.5, Y 0.11, F -0.75, H 0
L108: G -0.9, Q -1.27, Y -1.74, V -0.08, I 0.03, P -1.13, F -1.87, D -1.53, C 0.01, S -0.5, A -0.07, N -2.59, H -0.95, W -0.215, E -1.58, K -1.85, T 0, M 0.07, R -1.09
